In data set [1] the target is T1, GATA3 DBD (N- and C-finger) (human, UniProt P23771-2 260-370). Kind of data set: crystal structure.
The target in data set [2] is T1, GATA3 DBD (N- and C-finger). Kind of data set: SPR. In general terms: Surface plasmon resonance follows binding to a sensor surface in real time, without labels.
Data set [3] has the same target. Kind of data set: crystal structure. This is another data set of the same source.
Data set [4] has the same target. Put plainly: SPR. The source holds these as a separate data set.

Read-outs that look alike come from different tables or passages of the source.

Drawing on paper PMC3978094, this text covers binding result and Kd for four molecules.

By Kd is commonly meant the equilibrium constant for the complex coming apart. Read a high Kd as weaker binding.

B1: Complex 1 palindromic GATA site, 1-bp spacer, 20-mer (dsDNA)
DNA 1: AATGTCCATCTGATAAGACG
DNA 2: CGTCTTATCAGATGGACATT
As to B1, in data set [1], the binding result is listed as “binds”.

B2: single GATA site SPR probe (dsDNA)
DNA 1: CTCCCGCTCGCTCAGAGATAAGGCCTTAT
DNA 2: ATAAGGCTTTATCTCTGAGCGAGCGGGAG
In data set [2], B2 registered a Kd of approximately 60 nM.

B3: Complex 2/3 palindromic GATA site, 3-bp spacer, 20-mer (dsDNA)
DNA 1: TTCCTAAATCAGAGATAACC
DNA 2: GGTTATCTCTGATTTAGGAA
Turning to B3, in data set [3], the binding result is listed as “binds”.

B4: palindromic GATA site SPR probe (dsDNA)
DNA 1: CTCCCGCTCGCTATCAGATAAGGCCTTAT
DNA 2: ATAAGGCCTTATCTGATAGCGAGCGGGAG
Turning to B4, the Kd in data set [4] was approximately 6 nM.
